The target in data set [1] is SLPI binding sites on U937 cells (human monocyte cell line; intact cells, PMA-induced cells or plasma membranes) (human). The experiment in a line: competition with 125I-SLPI, intact U937 cells, competitor at 860 nM.
Data set [2] has the same target. The experiment in a line: competition with 125I-SLPI, intact U937 cells, competitor at 0 nM.
For data set [3], the target named is SLPI binding sites on HuT78 cells (human T cell line) (human). The experiment in a line: competition with 125I-SLPI, intact HuT78 cells, competitor at 0 nM.
In data set [4] the target is SLPI binding sites on U937 cells (human monocyte cell line; intact cells, PMA-induced cells or plasma membranes) (human). Kind of data set: competition with 125I-SLPI, intact U937 cells, competitor at 0.80 nM.
The target is the same in data set [5]. Kind of data set: competition with 125I-SLPI, U937 plasma membranes, competitor at 2750 nM (second GLY72 row).
Data set [6] has the same target. The experiment in a line: competition with 125I-SLPI, intact U937 cells, competitor at 0.024 nM.
Data set [7] deals with SLPI binding sites on HuT78 cells (human T cell line) (human). The experiment in a line: competition with 125I-SLPI, intact HuT78 cells, competitor at 84 nM.
In data set [8] the target is SLPI binding sites on U937 cells (human monocyte cell line; intact cells, PMA-induced cells or plasma membranes) (human). Kind of data set: competition with 125I-SLPI, U937 plasma membranes, competitor at 2750 nM.
Data set [9] has the same target. The experiment in a line: competition with 125I-SLPI, U937 plasma membranes, competitor at 83.9 nM.
Data set [10] addresses SLPI binding sites on HuT78 cells (human T cell line) (human). The experiment in a line: competition with 125I-SLPI, intact HuT78 cells, competitor at 0.80 nM.
The target of data set [11] is SLPI binding sites on U937 cells (human monocyte cell line; intact cells, PMA-induced cells or plasma membranes) (human). Kind of data set: competition with 125I-SLPI, intact U937 cells, competitor at 2.6 nM.
Data set [12] shares this target. Kind of data set: competition with 125I-SLPI, U937 plasma membranes, Kd by Cheng-Prusoff.
The target is the same in data set [13]. Kind of data set: competition with 125I-SLPI, intact U937 cells, competitor at 0.25 nM.
Data set [14] has the same target. Kind of data set: competition with 125I-SLPI, U937 plasma membranes, competitor at 0.800 nM (second GLY72 row).
The target is the same in data set [15]. Kind of data set: competition with 125I-SLPI, U937 plasma membranes, competitor at 2.56 nM (second GLY72 row).
The target of data set [16] is SLPI binding sites on HuT78 cells (human T cell line) (human). The experiment in a line: competition with 125I-SLPI, intact HuT78 cells, competitor at 2750 nM.
Data set [17] addresses SLPI binding sites on U937 cells (human monocyte cell line; intact cells, PMA-induced cells or plasma membranes) (human). The experiment in a line: competition with 125I-SLPI, U937 plasma membranes, competitor at 268 nM (second GLY72 row).
For data set [18] the target is unchanged. Kind of data set: competition with 125I-SLPI, U937 plasma membranes, competitor at 8.20 nM.
The target is the same in data set [19]. The experiment in a line: competition with 125I-SLPI, U937 plasma membranes, competitor at 8.20 nM (second GLY72 row).
The target is the same in data set [20]. Kind of data set: competition with 125I-SLPI, intact U937 cells, competitor at 0.078 nM.
For data set [21] the target is unchanged. The experiment in a line: competition with 125I-SLPI, intact U937 cells, competitor at 8.2 nM.
The target is the same in data set [22]. Kind of data set: competition with 125I-SLPI, U937 plasma membranes, competitor at 2.56 nM.
Data set [23] shares this target. Kind of data set: competition with 125I-SLPI, U937 plasma membranes, competitor at 268 nM.
The target is the same in data set [24]. The experiment in a line: competition with 125I-SLPI, intact U937 cells, competitor at 84 nM.
For data set [25], the target named is SLPI binding sites on HuT78 cells (human T cell line) (human). Kind of data set: competition with 125I-SLPI, intact HuT78 cells, Kd by Cheng-Prusoff.
Data set [26] has as its target SLPI binding sites on U937 cells (human monocyte cell line; intact cells, PMA-induced cells or plasma membranes) (human). The experiment in a line: competition with 125I-SLPI, U937 plasma membranes, competitor at 83.9 nM (second GLY72 row).
Data set [27] has the same target. Kind of data set: competition with 125I-SLPI, intact U937 cells, competitor at 26 nM.
The target of data set [28] is SLPI binding sites on HuT78 cells (human T cell line) (human). Kind of data set: competition with 125I-SLPI, intact HuT78 cells, competitor at 2.6 nM.
The target in data set [29] is SLPI binding sites on U937 cells (human monocyte cell line; intact cells, PMA-induced cells or plasma membranes) (human). The experiment in a line: competition with 125I-SLPI, U937 plasma membranes, competitor at 0.800 nM.
Data set [30] shares this target. Kind of data set: competition with 125I-SLPI, intact U937 cells, competitor at 2750 nM.
For data set [31] the target is unchanged. The experiment in a line: competition with 125I-SLPI, intact U937 cells, Kd by Cheng-Prusoff.
The target of data set [32] is SLPI binding sites on HuT78 cells (human T cell line) (human). Kind of data set: competition with 125I-SLPI, intact HuT78 cells, competitor at 8.2 nM.
Data set [33] has as its target SLPI binding sites on U937 cells (human monocyte cell line; intact cells, PMA-induced cells or plasma membranes) (human). Kind of data set: competition with 125I-SLPI, U937 plasma membranes, competitor at 0 nM (second GLY72 row).
The target is the same in data set [34]. The experiment in a line: competition with 125I-SLPI, intact U937 cells, competitor at 270 nM.
The target is the same in data set [35]. The experiment in a line: competition with 125I-SLPI, U937 plasma membranes, competitor at 0 nM.
Data set [36] has as its target T1, human neutrophil elastase (human, UniProt P08246 30-247, limits assumed).
T1 construct: also called HNE
T1 sequence (looked up): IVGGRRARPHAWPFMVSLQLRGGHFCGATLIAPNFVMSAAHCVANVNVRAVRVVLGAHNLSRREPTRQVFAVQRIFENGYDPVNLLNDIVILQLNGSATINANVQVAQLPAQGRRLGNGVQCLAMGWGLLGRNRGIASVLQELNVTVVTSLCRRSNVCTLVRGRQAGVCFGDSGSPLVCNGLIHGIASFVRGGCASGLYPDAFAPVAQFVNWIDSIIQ
Kind of data set: BIAcore, immobilized Phe72 mutein, monoS fractions of CHAPS-solubilized U937 membranes; identity by comigration. For orientation: SPR reads the build-up and loss of mass on a sensor chip optically.
Text: The BIAcore analytical system is available from Pharmacia Biosensor AB, Uppsala, Sweden.

Data set [37] deals with the molecule itself. The experiment in a line: DSS crosslinking of 2 µM 125I-SLPI in the absence of virus, reducing SDS-PAGE, phosphor imager.
Experimental: Incubation was stopped by addition of Laemmli sample buffer. […] The volume of the parallel sample that was loaded on the gel was 5 times larger than the volume of the virus-containing samples.

Substitutions are numbered along the chain they refer to.

Regarding “SLPI mutein Gly 72 (from UniProt P03973 26-132)”, the % *SLPI BOUND in [1] was found to be 53%; in data set [2], 131%; in data set [3], 100%; in [4] it was 116%; in data set [6], 116%; in data set [7], 110%. The % *SLPI BOUND in data set [10] turned out to be 108%; in [11], 115%; in [13], 120%; in data set [16], 28%; in data set [20], 118%; in [21] it was 117%. Also, the % *SLPI BOUND amounted to 101% in data set [24]; 112% in [27]; 105% in data set [28]; 28% in [30]; 85% in data set [32]; 75% in data set [34]. Besides, the CPM *SLPI BOUND came to 1430 cpm in data set [5]; 1780 cpm in data set [8]; 3710 cpm in data set [9]; 14000 cpm in data set [14]; 11300 cpm in data set [15]; 2530 cpm in data set [17]. The CPM *SLPI BOUND in data set [18] came out at 7210 cpm; in data set [19], 7300 cpm; in data set [22], 12000 cpm; in [23], 2840 cpm; in data set [26], 3940 cpm; in data set [29], 14700 cpm. The CPM *SLPI BOUND in [33] and in data set [35] was 18700 cpm throughout. For the same molecule, the results for the Kd in [12], in [25] and in data set [31] were 5 nM, 200 nM and 400 nM, respectively.

B1: SLPI mutein Phe 72 (other, human, UniProt P03973 26-132, looked up)
chain: SGKSFKAGVCPPKKSAQCLRYKKPECQSDWQCPGKKRCCPDTCGIKCLDPVDTPNPTRRKPGKCPVTYGQCFMLNPPNFCEMDGQCKRDLKCCMGMCGKSCVSPVKA
notes: mature; also called Phe72 mutein
With B1, the % *SLPI BOUND in data set [2] was 94%; in [3], 100%; in data set [4], 77%; in data set [7] it was 36%; in data set [10], 69%; in [11], 51%. The % *SLPI BOUND was found to be 1% in [16]; 22% in [21]; 4% in data set [24]; 90% in data set [28]; 5% in [30]; 57% in data set [32]. The CPM *SLPI BOUND came out at 1540 cpm in [8]; 1660 cpm in data set [9]; 4260 cpm in [18]; 8920 cpm in data set [22]; 2580 cpm in data set [23]; 12400 cpm in data set [29]. The molecule also yielded a CPM *SLPI BOUND in [35] of 18700 cpm. Further, in [36], the binding result is “binds”. The Kd – broadly, the constant that tells how readily two partners part at equilibrium – in [12] turned out to be 1 nM; in data set [25] it was 3 nM; in data set [31], 2 nM.

B2: serine leukocyte protease inhibitor (SLPI) (other, human, UniProt P03973 26-132, looked up)
chain: B1 chain with F72L
modifications: the tracer *SLPI carried I-125 (Bolton Hunter reagent in Examples 12-16, Iodogen in Example 19); positions not given
notes: mature; labelled and cold SLPI are treated as one molecule; also called *SLPI (radiolabelled); cold SLPI
For the molecule B2, the binding result in [37] was “binds”.
